Source: paper PMC12510028, “A biophysical and molecular characterization of the interaction between the Alzheimer risk factor BIN1 and the neuronal scaffold protein p140Cap” (The Journal of Biological Chemistry, 2025)

Tested on: p140Cap
Assay: GST pull-down from mouse brain homogenate, p140Cap captured
Assay type: binding
Settings: percent pulldown relative to input, two independent experiments, unpaired t test p = 0.0035
Procedure: For these experiments, we prepared glutathione S-transferase (GST) control and GST-tagged BIN1-SH3 domain fusion proteins coupled to glutathione-Sepharose and incubated them with mouse brain homogenates to capture bound proteins. Western blot analysis confirmed that p140Cap from the brain extract bound specifically to the BIN1-SH3 fusion protein, but not to the GST control (Fig. 7A).
To further investigate the contributions of electrostatic interactions in BIN1 SH3 domain–mediated protein binding, we conducted GST pull-down assays with mutant BIN1 SH3 domain constructs that lacked charged residues. […]
We used a previously published method with some modifications ([22]). […] The samples were analyzed by immunoblotting with antibodies against total tau (Dako #A0024; 1:1000) and p140Cap (Defilippi’s lab mAb; 1:2000) ([44]). After incubation with infrared dye–conjugated secondary antibodies, signals were recorded using the Odyssey infrared imaging system (LI-COR Biosciences) and quantified with ImageStudio6.0. The % GST pulldown was calculated by comparing signal intensities of p140Cap or tau in the input (10 μg) with the corresponding pull-down signal intensity from 0.5 mg protein and then multiplying by 100.

B1: BIN1-SH3 fusion protein: GST-tagged WT human BIN1-SH3 domain fusion protein coupled to glutathione-Sepharose (protein)
chain: GFMFKVQAQHDYTATDTDELQLKAGDVVLVIPFQNPEEQDEGWLMGVKESDWNQHKELEKCRGVFPENFTERVP
modifications: left off: 6xHis, N-terminal, state not stated | GST, N-terminal, kept
notes: GST-tagged WT human BIN1-SH3 domain fusion protein coupled to glutathione-Sepharose
fold more p140Cap captured than tau: ~9.4 fold
